This note sets out measurements from patent publication US20240018502.

Data set [1] has as its target cynomolgus monkey complement protein C3 (endogenous, in vitreous humor).
For data set [2], the target named is human complement protein C3.
Data set [3] deals with complement protein C3 of cynomolgus monkey plasma.
Data set [4] addresses T1, quenched fluorescence peptidic substrate containing SKGR/SL (P4-P2' of the PAR-2 activation cleavage site, Ser 33 to Leu 38).
T1 chain: SKGRSL

B1: Modified MTSP-1 protease domain Q38H/I41S/D60bT/F60eS/Y60gW/D96K/F97G/ins97aV/T98P/F99L/C122S/G151H/Q175L/Q192D (protein)
chain: VVGGTDADEGEWPWQVSLHALGHGHSCGASLISPNWLVSAAHCYIDTRGSRWSDPTQWTAFLGLHDQSQRSAPGVQERRLKRIISHPFFNKGVPLDYDIALLELEKPAEYSSMVRPISLPDASHVFPAGKAIWVTGWGHTQYGGTHALILQKGEIRVINQTTCENLLPQLITPRMMCVGFLSGGVDSCDGDSGGPLSSVEADGRIFQAGVVSWGDGCAQRNKPGVYTRLPLFRDWIKENTGV
For the protein B1, the “C3 levels in vitreous humor by ELISA after one intravitreal dose of 125 ug” value in data set [1] was “C3 was undetectable in the variant-treated eye 1, 2, 6, and 7 days after the single injection of the anti-C3 MTSP polypeptide”. In data set [2], the “ED50 of cleavage of human C3” value is listed as “cleaves human C3 in the assay described herein with an ED50 of 2 nM”; the “anti-C3 activity, fold increase owed to D60bT (against the variant with this residue reverted to wild type)” value was “D60bT-This mutation increases anti-C3 activity by approximately 2.8-fold”; the “anti-C3 activity, fold increase owed to D96K (against the variant with this residue reverted to wild type)” value is “D96K-This mutation increases anti-C3 activity by approximately 2.6-fold”; the “anti-C3 activity, fold increase owed to F60eS (against the variant with this residue reverted to wild type)” value is on record as “F60eS-This mutation increases anti-C3 activity by approximately 1.9-fold”. In data set [2], the “anti-C3 activity, fold increase owed to F97G (against the variant with this residue reverted to wild type)” value was “F97G-This mutation increases anti-C3 activity by approximately 4.3-fold and increases substrate specificity”; the “anti-C3 activity, fold increase owed to F99L (against the variant with this residue reverted to wild type)” value is reported as “F99L: This mutation increases anti-C3 activity by approximately 3.9-fold”; the “anti-C3 activity, fold increase owed to G151H (against the variant with this residue reverted to wild type)” value is recorded as “G151H: This mutation increases anti-C3 activity by approximately 1.2-fold”; the “anti-C3 activity, fold increase owed to I41S (against the variant with this residue reverted to wild type)” value is listed as “I41S-This mutation increases anti-C3 activity by approximately 44.6-fold”. In addition, in data set [2], the “anti-C3 activity, fold increase owed to Q38H (against the variant with this residue reverted to wild type)” value is on record as “Q38H-This mutation increases C3 activity by approximately 3.7-fold”; the “anti-C3 activity, fold increase owed to Q175L (against the variant with this residue reverted to wild type)” value is given as “Q175L: This mutation increases anti-C3 activity by approximately 4.3-fold”; the “anti-C3 activity, fold increase owed to T98P (against the variant with this residue reverted to wild type)” value is “T98P: This mutation ... increases anti-C3 activity by approximately 2.2-fold”; the “anti-C3 activity, fold increase owed to Y60gW (against the variant with this residue reverted to wild type)” value is “Y60gW-This mutation increases the enzyme's substrate specificity and increases anti-C3 activity by approximately 4.8-fold”. Also, in data set [2], the “anti-C3 activity, fold increase owed to the insertion 97aV (against the variant without the insertion)” value is listed as “Insert 97aV: This mutation ... increases anti-C3 activity by approximately 1.7-fold” and the “reduction of hemolytic activity (C3H50) after preincubation of C3 with the variant” value is listed as “reduces the hemolytic activity of the serum by approximately 80%”.

B2: Q38H/I41S/D60bT/F60eS/Y60gW/D96K/F97G/ins97aV/T98P/F99L/C122S/G151H/Q175L/Q192D (protein)
chain: VVGGTDADEGEWPWQVSLHALGHGHSCGASLISPNWLVSAAHCYIDTRGSRWSDPTQWTAFLGLHDQSQRSAPGVQERRLKRIISHPFFNKGVPLDYDIALLELEKPAEYSSMVRPISLPDASHVFPAGKAIWVTGWGHTQYGGTHALILQKGEIRVINQTTCENLLPQLITPRMMCVGFLSGGVDSCDGDSGGPLSSVEADGRIFQAGVVSWGDGCAQRNKPGVYTRLPLFRDWIKENTGV
The protein B2 returned an ED50 80% cynomolgus plasma (nM), C3 cleavage, C3 ELISA in data set [3] of 92 nM. For the same protein, in data set [2], the C3H50 Hemolytic Activity (U/mL), C3-depleted serum plus purified C3; Test Condition #1 (C3 and 8 nM test article incubated separately, no pre-cleavage) amounted to 470 U/mL; the C3H50 Hemolytic Activity (U/mL), C3-depleted serum plus purified C3; Test Condition #1 (C3 and 40 nM test article incubated separately, no pre-cleavage) was determined as 594 U/mL; the C3H50 Hemolytic Activity (U/mL), C3-depleted serum plus purified C3; Test Condition #1 (C3 and 200 nM test article incubated separately, no pre-cleavage) came out at 438 U/mL; the C3H50 Hemolytic Activity (U/mL), C3-depleted serum plus purified C3; Test Condition #2 (C3 pre-incubated 2 h at 37 C with 8 nM test article) stood at 295 U/mL. Besides, in data set [2], the C3H50 Hemolytic Activity (U/mL), C3-depleted serum plus purified C3; Test Condition #2 (C3 pre-incubated 2 h at 37 C with 40 nM test article) turned out to be 97.9 U/mL; the C3H50 Hemolytic Activity (U/mL), C3-depleted serum plus purified C3; Test Condition #2 (C3 pre-incubated 2 h at 37 C with 200 nM test article) is 73.7 U/mL; the CH50 hemolytic activity (U/mL), human citrated plasma after 1 h at 37 C with 3.2 nM test article came out at 73 U/mL; the CH50 hemolytic activity (U/mL), human citrated plasma after 1 h at 37 C with 16 nM test article worked out at 69 U/mL. Besides, in data set [2], the CH50 hemolytic activity (U/mL), human citrated plasma after 1 h at 37 C with 80 nM test article was 41.5 U/mL; the CH50 hemolytic activity (U/mL), human citrated plasma after 1 h at 37 C with 400 nM test article was 10.8 U/mL; the CH50 hemolytic activity (U/mL), human citrated plasma after 1 h at 37 C with 2000 nM test article is 5.56 U/mL; the ED50 80% human plasma (60 min, nM), C3 cleavage came out at 25 nM. The protein also registered an SKGR/SL kcat/Km in data set [4] of 6210 M⁻¹ s⁻¹.

B3: Q38H/I41S/D60bT/F60eS/Y60gW/D96V/F97G/ins97aV/T98P/F99L/C122S/G151H/Q175L/Q192D (protein)
chain: VVGGTDADEGEWPWQVSLHALGHGHSCGASLISPNWLVSAAHCYIDTRGSRWSDPTQWTAFLGLHDQSQRSAPGVQERRLKRIISHPFFNVGVPLDYDIALLELEKPAEYSSMVRPISLPDASHVFPAGKAIWVTGWGHTQYGGTHALILQKGEIRVINQTTCENLLPQLITPRMMCVGFLSGGVDSCDGDSGGPLSSVEADGRIFQAGVVSWGDGCAQRNKPGVYTRLPLFRDWIKENTGV
In data set [3], B3 gave an ED50 80% cynomolgus plasma (nM), C3 cleavage, C3 ELISA of 103 nM. In data set [2], the ED50 80% human plasma (60 min, nM), C3 cleavage is 27 nM. This protein displayed an SKGR/SL kcat/Km in data set [4] of 4990 M⁻¹ s⁻¹.

B4: Q38H/I41S/D60bT/F60eS/Y60gW/D96K/F97D/ins97aA/T98P/F99L/C122S/G151N/Q175L/Q192D (protein)
chain: VVGGTDADEGEWPWQVSLHALGHGHSCGASLISPNWLVSAAHCYIDTRGSRWSDPTQWTAFLGLHDQSQRSAPGVQERRLKRIISHPFFNKDAPLDYDIALLELEKPAEYSSMVRPISLPDASHVFPAGKAIWVTGWGHTQYGGTNALILQKGEIRVINQTTCENLLPQLITPRMMCVGFLSGGVDSCDGDSGGPLSSVEADGRIFQAGVVSWGDGCAQRNKPGVYTRLPLFRDWIKENTGV
B4 returned an ED50 80% cynomolgus plasma (nM), C3 cleavage, C3 ELISA in data set [3] of 37 nM. This protein had an ED50 80% human plasma (60 min, nM), C3 cleavage in data set [2] of 44 nM. The SKGR/SL kcat/Km in data set [4] turned out to be 2060 M⁻¹ s⁻¹.
